In the data set the target is T1, thio GLP-1 (GLP-1 7-36 with a thioamide at the Ala8-Glu9 scissile bond).
T1 chain: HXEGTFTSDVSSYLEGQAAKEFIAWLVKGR

B1: dipeptidyl peptidase 4 (DPP-4) (protein)
chain: SRKTYTLTDYLKNTYRLKLYSLRWISDHEYLYKQENNILVFNAEYGNSSVFLENSTFDEFGHSINDYSISPDGQFILLEYNYVKQWRHSYTASYDIYDLNKRQLITEERIPNNTQWVTWSPVGHKLAYVWNNDIYVKIEPNLPSYRITWTGKEDIIYNGITDWVYEEEVFSAYSALWWSPNGTFLAYAQFNDTEVPLIEYSFYSDESLQYPKTVRVPYPKAGAVNPTVKFFVVNTDSLSSVTNATSIQITAPASMLIGDHYLCDVTWATQERISLQWLRRIQNYSVMDICDYDESSGRWNCLVARQHIEMSTTGWVGRFRPSEPHFTLDGNSFYKIISNEEGYRHICYFQIDKKDCTFITKGTWEVIGIEALTSDYLYYISNEYKGMPGGRNLYKIQLSDYTKVTCLSCELNPERCQYYSVSFSKEAKYYQLRCSGPGLPLYTLHSSVNDKGLRVLEDNSALDKMLQNVQMPSKKLDFIILNETKFWYQMILPPHFDKSKKYPLLLDVYAGPCSQKADTVFRLNWATYLASTENIIVASFDGRGSGYQGDKIMHAINRRLGTFEVEDQIEAARQFSKMGFVDNKRIAIWGWSYGGYVTSMVLGSGSGVFKCGIAVAPVSRWEYYDSVYTERYMGLPTPEDNLDHYRNSTVMSRAENFKQVEYLLIHGTADDNVHFQQSAQISKALVDVGVDFQAMWYTDEDHGIASSTAHQHIYTHMSHFIKQCFSLP
As for B1, the “cleavage of Gly-Pro-pNA substrate by DPP-4” value was “did not inhibit cleavage of Gly-Pro-pNA substrate at 100 µM”.
